# Laboratory results published in patent US20260049138A1 (Chugai, published 2026).
# Target: T1, CD3ε homodimer protein (human, UniProt P07766 23-126, limits assumed)
# T1 construct: also called CD3 (CD3ε)
# Experiment: SPR Biacore T200, CD3ε homodimer on chip;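 also: Light-chain single-residue variant antibodies injected over amine-coupled CD3ε homodimer on a CM4 chip at 25 °C, bound amount divided by that of the GLS3000-containing antibody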
# T1 sequence (P07766 23-126 limits assumed): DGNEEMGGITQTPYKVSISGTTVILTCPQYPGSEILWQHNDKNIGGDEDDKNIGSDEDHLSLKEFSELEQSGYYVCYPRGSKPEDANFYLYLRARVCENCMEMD
row,Binder,ratio of amount bound vs unaltered GLS3000
1,"GLS3000 G89W one-arm antibody (antibody, human IgG1, kappa, L234A L235A, N297A, name in Kabat numbering) heavy: QVQLVESGGGVVQPGRSLRLSCAASGFTFSNAWMHWVRQAPGKGLEWVAQIKAKSNNYATYYAESVKGRFTISRDDSKNSLYLQMNSLKTEDTAVYYCRYVHYGAYYGVDAWGQGTTVTVSSASTKGPSVFPLAPSSKSTSGGTAALGCLVKDYFPEPVTVSWNSGALTSGVHTFPAVLQSSGLYSLSSVVTVPSSSLGTQTYICNVNHKPSNTKVDKKVEPKSCDKTHTCPPCPAPEAAGGPSVFLFPPKPKDTLMISRTPEVTCVVVDVSHEDPEVKFNWYVDGVEVHNAKTKPREEQYASTYRVVSVLTVLHQDWLNGKEYKCKVSNKALPAPIEKTISKAKGQPREPQVYTLPPSRCELTKNQVSLSCAVKGFYPSDIAVEWESNGQPENNYKTTPPVLDSDGSFFLVSKLTVDKSRWQQGNVFSCSVMHEALHNHYTQKSLSLSPDYKDDDDK EPKSSDKTHTCPPCPAPELLGGPSVFLFPPKPKDTLMISRTPEVTCVVVDVSHEDPEVKFNWYVDGVEVHNAKTKPREEQYNSTYRVVSVLTVLHQDWLNGKEYKCKVSNKALPAPIEKTISKAKGQPREPQVCTLPPSRDELTKNQVSLWCLVKGFYPSDIAVEWESNGQPENNYKTTPPVLDSDGSFFLYSKLTVDKSRWQQGNVFSCSVMHEALHNRYTQKSLSLSP light: DIVMTQSPLSLPVTPGEPASISCRSSQSLVHSNRNTYLHWYQQKPGQAPRLLIYKVSNRFSGVPDRFSGSGSGTDFTLKISRVEAEDVGVYYCWQGTQVPYTFGQGTKLEIKRTVAAPSVFIFPPSDEQLKSGTASVVCLLNNFYPREAKVQWKVDNALQSGNSQESVTEQDSKDSTYSLSSTLTLSKADYEKHKVYACEVTHQGLSSPVTKSFNRGEC",0.5
2,"GLS3000 G89Y one-arm antibody (antibody, human IgG1, kappa, L234A L235A, N297A, name in Kabat numbering) heavy: QVQLVESGGGVVQPGRSLRLSCAASGFTFSNAWMHWVRQAPGKGLEWVAQIKAKSNNYATYYAESVKGRFTISRDDSKNSLYLQMNSLKTEDTAVYYCRYVHYGAYYGVDAWGQGTTVTVSSASTKGPSVFPLAPSSKSTSGGTAALGCLVKDYFPEPVTVSWNSGALTSGVHTFPAVLQSSGLYSLSSVVTVPSSSLGTQTYICNVNHKPSNTKVDKKVEPKSCDKTHTCPPCPAPEAAGGPSVFLFPPKPKDTLMISRTPEVTCVVVDVSHEDPEVKFNWYVDGVEVHNAKTKPREEQYASTYRVVSVLTVLHQDWLNGKEYKCKVSNKALPAPIEKTISKAKGQPREPQVYTLPPSRCELTKNQVSLSCAVKGFYPSDIAVEWESNGQPENNYKTTPPVLDSDGSFFLVSKLTVDKSRWQQGNVFSCSVMHEALHNHYTQKSLSLSPDYKDDDDK EPKSSDKTHTCPPCPAPELLGGPSVFLFPPKPKDTLMISRTPEVTCVVVDVSHEDPEVKFNWYVDGVEVHNAKTKPREEQYNSTYRVVSVLTVLHQDWLNGKEYKCKVSNKALPAPIEKTISKAKGQPREPQVCTLPPSRDELTKNQVSLWCLVKGFYPSDIAVEWESNGQPENNYKTTPPVLDSDGSFFLYSKLTVDKSRWQQGNVFSCSVMHEALHNRYTQKSLSLSP light: DIVMTQSPLSLPVTPGEPASISCRSSQSLVHSNRNTYLHWYQQKPGQAPRLLIYKVSNRFSGVPDRFSGSGSGTDFTLKISRVEAEDVGVYYCYQGTQVPYTFGQGTKLEIKRTVAAPSVFIFPPSDEQLKSGTASVVCLLNNFYPREAKVQWKVDNALQSGNSQESVTEQDSKDSTYSLSSTLTLSKADYEKHKVYACEVTHQGLSSPVTKSFNRGEC",1.19
3,"GLS3000 G91A one-arm antibody (antibody, human IgG1, kappa, L234A L235A, N297A, name in Kabat numbering) heavy: QVQLVESGGGVVQPGRSLRLSCAASGFTFSNAWMHWVRQAPGKGLEWVAQIKAKSNNYATYYAESVKGRFTISRDDSKNSLYLQMNSLKTEDTAVYYCRYVHYGAYYGVDAWGQGTTVTVSSASTKGPSVFPLAPSSKSTSGGTAALGCLVKDYFPEPVTVSWNSGALTSGVHTFPAVLQSSGLYSLSSVVTVPSSSLGTQTYICNVNHKPSNTKVDKKVEPKSCDKTHTCPPCPAPEAAGGPSVFLFPPKPKDTLMISRTPEVTCVVVDVSHEDPEVKFNWYVDGVEVHNAKTKPREEQYASTYRVVSVLTVLHQDWLNGKEYKCKVSNKALPAPIEKTISKAKGQPREPQVYTLPPSRCELTKNQVSLSCAVKGFYPSDIAVEWESNGQPENNYKTTPPVLDSDGSFFLVSKLTVDKSRWQQGNVFSCSVMHEALHNHYTQKSLSLSPDYKDDDDK EPKSSDKTHTCPPCPAPELLGGPSVFLFPPKPKDTLMISRTPEVTCVVVDVSHEDPEVKFNWYVDGVEVHNAKTKPREEQYNSTYRVVSVLTVLHQDWLNGKEYKCKVSNKALPAPIEKTISKAKGQPREPQVCTLPPSRDELTKNQVSLWCLVKGFYPSDIAVEWESNGQPENNYKTTPPVLDSDGSFFLYSKLTVDKSRWQQGNVFSCSVMHEALHNRYTQKSLSLSP light: DIVMTQSPLSLPVTPGEPASISCRSSQSLVHSNRNTYLHWYQQKPGQAPRLLIYKVSNRFSGVPDRFSGSGSGTDFTLKISRVEAEDVGVYYCGQATQVPYTFGQGTKLEIKRTVAAPSVFIFPPSDEQLKSGTASVVCLLNNFYPREAKVQWKVDNALQSGNSQESVTEQDSKDSTYSLSSTLTLSKADYEKHKVYACEVTHQGLSSPVTKSFNRGEC",0.27
4,"GLS3000 G91D one-arm antibody (antibody, human IgG1, kappa, L234A L235A, N297A, name in Kabat numbering) heavy: QVQLVESGGGVVQPGRSLRLSCAASGFTFSNAWMHWVRQAPGKGLEWVAQIKAKSNNYATYYAESVKGRFTISRDDSKNSLYLQMNSLKTEDTAVYYCRYVHYGAYYGVDAWGQGTTVTVSSASTKGPSVFPLAPSSKSTSGGTAALGCLVKDYFPEPVTVSWNSGALTSGVHTFPAVLQSSGLYSLSSVVTVPSSSLGTQTYICNVNHKPSNTKVDKKVEPKSCDKTHTCPPCPAPEAAGGPSVFLFPPKPKDTLMISRTPEVTCVVVDVSHEDPEVKFNWYVDGVEVHNAKTKPREEQYASTYRVVSVLTVLHQDWLNGKEYKCKVSNKALPAPIEKTISKAKGQPREPQVYTLPPSRCELTKNQVSLSCAVKGFYPSDIAVEWESNGQPENNYKTTPPVLDSDGSFFLVSKLTVDKSRWQQGNVFSCSVMHEALHNHYTQKSLSLSPDYKDDDDK EPKSSDKTHTCPPCPAPELLGGPSVFLFPPKPKDTLMISRTPEVTCVVVDVSHEDPEVKFNWYVDGVEVHNAKTKPREEQYNSTYRVVSVLTVLHQDWLNGKEYKCKVSNKALPAPIEKTISKAKGQPREPQVCTLPPSRDELTKNQVSLWCLVKGFYPSDIAVEWESNGQPENNYKTTPPVLDSDGSFFLYSKLTVDKSRWQQGNVFSCSVMHEALHNRYTQKSLSLSP light: DIVMTQSPLSLPVTPGEPASISCRSSQSLVHSNRNTYLHWYQQKPGQAPRLLIYKVSNRFSGVPDRFSGSGSGTDFTLKISRVEAEDVGVYYCGQDTQVPYTFGQGTKLEIKRTVAAPSVFIFPPSDEQLKSGTASVVCLLNNFYPREAKVQWKVDNALQSGNSQESVTEQDSKDSTYSLSSTLTLSKADYEKHKVYACEVTHQGLSSPVTKSFNRGEC",0.16
5,"GLS3000 G91P one-arm antibody (antibody, human IgG1, kappa, L234A L235A, N297A, name in Kabat numbering) heavy: QVQLVESGGGVVQPGRSLRLSCAASGFTFSNAWMHWVRQAPGKGLEWVAQIKAKSNNYATYYAESVKGRFTISRDDSKNSLYLQMNSLKTEDTAVYYCRYVHYGAYYGVDAWGQGTTVTVSSASTKGPSVFPLAPSSKSTSGGTAALGCLVKDYFPEPVTVSWNSGALTSGVHTFPAVLQSSGLYSLSSVVTVPSSSLGTQTYICNVNHKPSNTKVDKKVEPKSCDKTHTCPPCPAPEAAGGPSVFLFPPKPKDTLMISRTPEVTCVVVDVSHEDPEVKFNWYVDGVEVHNAKTKPREEQYASTYRVVSVLTVLHQDWLNGKEYKCKVSNKALPAPIEKTISKAKGQPREPQVYTLPPSRCELTKNQVSLSCAVKGFYPSDIAVEWESNGQPENNYKTTPPVLDSDGSFFLVSKLTVDKSRWQQGNVFSCSVMHEALHNHYTQKSLSLSPDYKDDDDK EPKSSDKTHTCPPCPAPELLGGPSVFLFPPKPKDTLMISRTPEVTCVVVDVSHEDPEVKFNWYVDGVEVHNAKTKPREEQYNSTYRVVSVLTVLHQDWLNGKEYKCKVSNKALPAPIEKTISKAKGQPREPQVCTLPPSRDELTKNQVSLWCLVKGFYPSDIAVEWESNGQPENNYKTTPPVLDSDGSFFLYSKLTVDKSRWQQGNVFSCSVMHEALHNRYTQKSLSLSP light: DIVMTQSPLSLPVTPGEPASISCRSSQSLVHSNRNTYLHWYQQKPGQAPRLLIYKVSNRFSGVPDRFSGSGSGTDFTLKISRVEAEDVGVYYCGQPTQVPYTFGQGTKLEIKRTVAAPSVFIFPPSDEQLKSGTASVVCLLNNFYPREAKVQWKVDNALQSGNSQESVTEQDSKDSTYSLSSTLTLSKADYEKHKVYACEVTHQGLSSPVTKSFNRGEC",0.27
6,"GLS3000 G91E one-arm antibody (antibody, human IgG1, kappa, L234A L235A, N297A, name in Kabat numbering) heavy: QVQLVESGGGVVQPGRSLRLSCAASGFTFSNAWMHWVRQAPGKGLEWVAQIKAKSNNYATYYAESVKGRFTISRDDSKNSLYLQMNSLKTEDTAVYYCRYVHYGAYYGVDAWGQGTTVTVSSASTKGPSVFPLAPSSKSTSGGTAALGCLVKDYFPEPVTVSWNSGALTSGVHTFPAVLQSSGLYSLSSVVTVPSSSLGTQTYICNVNHKPSNTKVDKKVEPKSCDKTHTCPPCPAPEAAGGPSVFLFPPKPKDTLMISRTPEVTCVVVDVSHEDPEVKFNWYVDGVEVHNAKTKPREEQYASTYRVVSVLTVLHQDWLNGKEYKCKVSNKALPAPIEKTISKAKGQPREPQVYTLPPSRCELTKNQVSLSCAVKGFYPSDIAVEWESNGQPENNYKTTPPVLDSDGSFFLVSKLTVDKSRWQQGNVFSCSVMHEALHNHYTQKSLSLSPDYKDDDDK EPKSSDKTHTCPPCPAPELLGGPSVFLFPPKPKDTLMISRTPEVTCVVVDVSHEDPEVKFNWYVDGVEVHNAKTKPREEQYNSTYRVVSVLTVLHQDWLNGKEYKCKVSNKALPAPIEKTISKAKGQPREPQVCTLPPSRDELTKNQVSLWCLVKGFYPSDIAVEWESNGQPENNYKTTPPVLDSDGSFFLYSKLTVDKSRWQQGNVFSCSVMHEALHNRYTQKSLSLSP light: DIVMTQSPLSLPVTPGEPASISCRSSQSLVHSNRNTYLHWYQQKPGQAPRLLIYKVSNRFSGVPDRFSGSGSGTDFTLKISRVEAEDVGVYYCGQETQVPYTFGQGTKLEIKRTVAAPSVFIFPPSDEQLKSGTASVVCLLNNFYPREAKVQWKVDNALQSGNSQESVTEQDSKDSTYSLSSTLTLSKADYEKHKVYACEVTHQGLSSPVTKSFNRGEC",0.16
